# In US20250340631A1 (HARBOUR BIOMED SHANGHAI, published 2025):
# B1: PR005518 (bispecific antibody)
# chain 1: EVQLVESGGGLVQPGGSLRLSCAASGFTFSSYWMHWVRQVPGKGLVWVSRINSDGSRTIYADSVKGRFTISRDNAKNTLYLQMNSLRAEDTAVYYCARGEDHDILTGYPIRGQGTTVTVSSASEPKSSDKTHTCPPCPAPEAAGGPSVFLFPPKPKDTLMISRTPEVTCVVVDVSHEDPEVKFNWYVDGVEVHNAKTKPREEQYNSTYRVVSVLTVLHQDWLNGKEYKCKVSNKALPAPIEKTISKAKGQPREPQVCTLPPSREEMTKNQVSLSCAVKGFYPSDIAVEWESNGQPENNYKTTPPVLDSDGSFFLVSKLTVDKSRWQQGNVFSCSVMHEALHNHYTQKSLSLSPGK
# chain 2: not shown
# light: QAVVTQEPSLTVSPGGTVTLTCRSSTGAVTTSNYANWVQQKPGQAPRGLIGGTNKRAPWTPARFSGSLLGDKAALTLLGAQPEDEAEYFCALWYSNLWVFGGGTKLTVLGQPKAAPSVTLFPPSSEELQANKATLVCLISDFYPGAVTVAWKADSSPVKAGVETTTPSKQSNNKYAASSYLSLTPEQWKSHRSYSCQVTHEGSTVEKTVAPTECS
# notes: structure 2 (2+1 HCAb-Fc-Fab, CD3 VH-CH1 at the C-terminus of one HCAb chain); PR001848 / PR004533; LALA
# B2: PR005519 (bispecific antibody)
# chain 1: B1 chain 1
# chain 2: not shown
# chain 3: EVQLLESGGGLVQPGGSLRLSCAASGFTFSTYAMNWVRQAPGKGLEWVSRIRSKYNNYATYYADSVKDRFTISRDDSKSTLYLQMNSLRAEDTAVYYCVRHGNFGNSYVSWFAYWGQGTLVTVSSASTKGPSVFPLAPSSKSTSGGTAALGCLVKDYFPEPVTVSWNSGALTSGVHTFPAVLQSSGLYSLSSVVTVPSSSLGTQTYICNVNHKPSNTKVDKKVEPKSC
# notes: structure 3 (2+1 HCAb-Fc-Fab, CD3 VL-CL at the C-terminus of one HCAb chain; third chain is CD3 VH-CH1); PR001848 / PR004533; LALA
# B3: PR005521 (bispecific antibody)
# chain 1: EVQLVESGGGLVQPGGSLRLSCAASGFTFSSYWMHWVRQVPGKGLVWVSRINSDGSRTIYADSVKGRFTISRDNAKNTLYLQMNSLRAEDTAVYYCARGEDHDILTGYPIRGQGTTVTVSSGGGGSGGGGSGGGGSEVQLVESGGGLVQPGGSLRLSCAASGFTFSSYWMHWVRQVPGKGLVWVSRINSDGSRTIYADSVKGRFTISRDNAKNTLYLQMNSLRAEDTAVYYCARGEDHDILTGYPIRGQGTTVTVSSASEPKSSDKTHTCPPCPAPEAAGGPSVFLFPPKPKDTLMISRTPEVTCVVVDVSHEDPEVKFNWYVDGVEVHNAKTKPREEQYNSTYRVVSVLTVLHQDWLNGKEYKCKVSNKALPAPIEKTISKAKGQPREPQVCTLPPSREEMTKNQVSLSCAVKGFYPSDIAVEWESNGQPENNYKTTPPVLDSDGSFFLVSKLTVDKSRWQQGNVFSCSVMHEALHNHYTQKSLSLSPGK
# chain 2: not shown
# chain 3: B2 chain 3
# notes: third chain is CD3 VH-CH1; PR001848 / PR004533; LALA
# B4: PR005522 (bispecific antibody, human IgG1, lambda, L234A L235A)
# chain: B3 chain 1
# heavy: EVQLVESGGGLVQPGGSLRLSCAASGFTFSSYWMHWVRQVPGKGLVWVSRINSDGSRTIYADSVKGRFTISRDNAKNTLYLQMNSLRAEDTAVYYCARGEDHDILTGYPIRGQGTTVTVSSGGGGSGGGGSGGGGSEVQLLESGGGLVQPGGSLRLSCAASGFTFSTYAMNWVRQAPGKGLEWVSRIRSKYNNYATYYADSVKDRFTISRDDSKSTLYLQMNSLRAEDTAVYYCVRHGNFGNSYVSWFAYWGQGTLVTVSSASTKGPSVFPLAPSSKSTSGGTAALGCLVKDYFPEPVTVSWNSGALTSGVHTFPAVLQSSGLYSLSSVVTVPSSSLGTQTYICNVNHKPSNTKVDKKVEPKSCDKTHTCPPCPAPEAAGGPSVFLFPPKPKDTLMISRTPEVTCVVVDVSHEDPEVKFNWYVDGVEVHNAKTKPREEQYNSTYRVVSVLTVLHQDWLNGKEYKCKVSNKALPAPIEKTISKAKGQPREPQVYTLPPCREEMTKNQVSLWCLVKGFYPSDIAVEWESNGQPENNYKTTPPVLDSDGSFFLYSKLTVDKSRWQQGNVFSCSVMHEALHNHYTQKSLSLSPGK
# light: B1 light
# notes: PR001848 / PR004533; LALA
# B5: PR005354 (bispecific antibody, human IgG1, lambda, L234A L235A)
# chain: B3 chain 1
# heavy: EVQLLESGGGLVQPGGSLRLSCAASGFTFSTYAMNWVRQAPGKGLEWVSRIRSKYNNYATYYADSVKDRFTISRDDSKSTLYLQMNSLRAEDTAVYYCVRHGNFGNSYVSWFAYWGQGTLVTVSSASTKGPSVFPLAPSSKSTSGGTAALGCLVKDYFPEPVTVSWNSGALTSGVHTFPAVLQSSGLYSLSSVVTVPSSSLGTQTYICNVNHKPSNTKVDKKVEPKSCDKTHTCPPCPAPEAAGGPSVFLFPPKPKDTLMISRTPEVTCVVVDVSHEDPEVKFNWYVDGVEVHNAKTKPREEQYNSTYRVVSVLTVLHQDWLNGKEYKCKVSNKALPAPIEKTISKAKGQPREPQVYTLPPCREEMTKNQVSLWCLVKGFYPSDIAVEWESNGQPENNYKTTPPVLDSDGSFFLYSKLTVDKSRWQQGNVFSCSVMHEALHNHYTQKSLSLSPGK
# light: B1 light
# notes: structure 1; CD3 Fab from PR001848, CLDN18.2 VH from PR004533; LALA
# B6: PR005076 (bispecific antibody, human IgG1, lambda, L234A L235A)
# chain: EVQLVESGGGLVQPGGSLRLSCAASGFTFSSYWMYWVRQVPGKGLVWVSHINSDGSTTQYADSVKGRFTISRDNAKNMLYLQMNSLRAEDTAVYYCARDFPVLGGSHFDFQHWGQGTLVTVSSGGGGSGGGGSGGGGSEVQLVESGGGLVQPGGSLRLSCAASGFTFSSYWMYWVRQVPGKGLVWVSHINSDGSTTQYADSVKGRFTISRDNAKNMLYLQMNSLRAEDTAVYYCARDFPVLGGSHFDFQHWGQGTLVTVSSASEPKSSDKTHTCPPCPAPEAAGGPSVFLFPPKPKDTLMISRTPEVTCVVVDVSHEDPEVKFNWYVDGVEVHNAKTKPREEQYNSTYRVVSVLTVLHQDWLNGKEYKCKVSNKALPAPIEKTISKAKGQPREPQVCTLPPSREEMTKNQVSLSCAVKGFYPSDIAVEWESNGQPENNYKTTPPVLDSDGSFFLVSKLTVDKSRWQQGNVFSCSVMHEALHNHYTQKSLSLSPGK
# heavy: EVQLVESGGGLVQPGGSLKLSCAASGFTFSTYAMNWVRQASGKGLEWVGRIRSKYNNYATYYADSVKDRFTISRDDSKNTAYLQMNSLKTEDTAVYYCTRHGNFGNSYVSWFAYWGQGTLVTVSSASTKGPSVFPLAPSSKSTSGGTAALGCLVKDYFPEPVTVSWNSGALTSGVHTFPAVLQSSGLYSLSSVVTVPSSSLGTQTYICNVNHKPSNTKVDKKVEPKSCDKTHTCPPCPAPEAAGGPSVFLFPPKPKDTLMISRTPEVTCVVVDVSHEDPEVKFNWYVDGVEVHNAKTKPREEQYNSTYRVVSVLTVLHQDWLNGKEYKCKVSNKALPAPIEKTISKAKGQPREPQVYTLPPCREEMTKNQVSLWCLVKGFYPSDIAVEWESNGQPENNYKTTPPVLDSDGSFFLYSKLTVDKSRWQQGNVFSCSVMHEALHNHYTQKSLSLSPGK
# light: B1 light
# notes: structure 1; CD3 Fab from PR003886, CLDN18.2 VH from PR004536; LALA
# B7: PR005072 (bispecific antibody, human IgG1, lambda, L234A L235A)
# chain: B3 chain 1
# heavy: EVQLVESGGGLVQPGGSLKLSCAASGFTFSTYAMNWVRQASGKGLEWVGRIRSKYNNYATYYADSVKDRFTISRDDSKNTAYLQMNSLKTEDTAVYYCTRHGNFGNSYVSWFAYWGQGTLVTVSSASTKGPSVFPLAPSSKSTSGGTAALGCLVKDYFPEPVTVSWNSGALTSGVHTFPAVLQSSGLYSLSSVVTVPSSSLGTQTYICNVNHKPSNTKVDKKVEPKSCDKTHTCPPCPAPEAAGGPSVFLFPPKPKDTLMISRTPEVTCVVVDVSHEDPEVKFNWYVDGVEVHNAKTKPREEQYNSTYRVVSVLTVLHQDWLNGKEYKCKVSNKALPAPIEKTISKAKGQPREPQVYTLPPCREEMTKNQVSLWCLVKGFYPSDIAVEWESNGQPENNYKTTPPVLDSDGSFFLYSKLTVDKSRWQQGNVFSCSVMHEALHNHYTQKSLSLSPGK
# light: B1 light
# notes: structure 1; CD3 Fab from PR003886, CLDN18.2 VH from PR004533; LALA
# B8: PR004603 (bispecific antibody, human IgG1, lambda, L234A L235A)
# chain: EVQLVESGGGLVQPGGSLRLSCAASGFTFSSYWMHWVRQAPGKGLEWVSYINNDGSSTRYADSVKGRFTISRDNAKNTLYLQMNSLRAEDTAVYYCTEAPPYGNYERDYWGQGTLVTVSSGGGGSGGGGSGGGGSEVQLVESGGGLVQPGGSLRLSCAASGFTFSSYWMHWVRQAPGKGLEWVSYINNDGSSTRYADSVKGRFTISRDNAKNTLYLQMNSLRAEDTAVYYCTEAPPYGNYERDYWGQGTLVTVSSASEPKSSDKTHTCPPCPAPEAAGGPSVFLFPPKPKDTLMISRTPEVTCVVVDVSHEDPEVKFNWYVDGVEVHNAKTKPREEQYNSTYRVVSVLTVLHQDWLNGKEYKCKVSNKALPAPIEKTISKAKGQPREPQVCTLPPSREEMTKNQVSLSCAVKGFYPSDIAVEWESNGQPENNYKTTPPVLDSDGSFFLVSKLTVDKSRWQQGNVFSCSVMHEALHNHYTQKSLSLSPGK
# heavy: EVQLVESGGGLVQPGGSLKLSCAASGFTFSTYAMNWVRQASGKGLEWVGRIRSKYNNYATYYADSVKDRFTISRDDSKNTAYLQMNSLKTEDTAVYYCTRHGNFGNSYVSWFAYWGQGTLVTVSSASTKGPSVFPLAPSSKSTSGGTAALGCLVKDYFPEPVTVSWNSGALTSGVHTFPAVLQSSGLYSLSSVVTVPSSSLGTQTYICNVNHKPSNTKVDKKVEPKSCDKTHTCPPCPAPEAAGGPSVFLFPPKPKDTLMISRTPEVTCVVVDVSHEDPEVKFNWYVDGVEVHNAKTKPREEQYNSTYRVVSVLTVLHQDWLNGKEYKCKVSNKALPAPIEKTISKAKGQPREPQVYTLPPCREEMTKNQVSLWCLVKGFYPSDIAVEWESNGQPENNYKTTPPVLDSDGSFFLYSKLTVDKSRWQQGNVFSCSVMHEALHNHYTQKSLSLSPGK
# light: B1 light
# notes: structure 1 (2+1 Fab-Fc-Dual VH); CD3 Fab from PR003886, CLDN18.2 VH from PR004227; IgG1 knob/hole, LALA
# B9: PR005525 (bispecific antibody, human IgG1, lambda, L234A L235A)
# chain: EVQLVESGGGLVQPGGSLRLSCAASGFTFSSYWMHWVRQVPGKGLVWVSRINSDGSRTIYADSVKGRFTISRDNAKNTLYLQMNSLRAEDTAVYYCARGEDHDILTGYPIRGQGTTVTVSSGGGGSGGGGSGGGGSEVQLVESGGGLVQPGGSLRLSCAASGFTFSSYWMHWVRQVPGKGLVWVSRINSDGSRTIYADSVKGRFTISRDNAKNTLYLQMNSLRAEDTAVYYCARGEDHDILTGYPIRGQGTTVTVSSGGGGSGGGGSGGGGSEVQLVESGGGLVQPGGSLRLSCAASGFTFSSYWMHWVRQVPGKGLVWVSRINSDGSRTIYADSVKGRFTISRDNAKNTLYLQMNSLRAEDTAVYYCARGEDHDILTGYPIRGQGTTVTVSSASEPKSSDKTHTCPPCPAPEAAGGPSVFLFPPKPKDTLMISRTPEVTCVVVDVSHEDPEVKFNWYVDGVEVHNAKTKPREEQYNSTYRVVSVLTVLHQDWLNGKEYKCKVSNKALPAPIEKTISKAKGQPREPQVCTLPPSREEMTKNQVSLSCAVKGFYPSDIAVEWESNGQPENNYKTTPPVLDSDGSFFLVSKLTVDKSRWQQGNVFSCSVMHEALHNHYTQKSLSLSPGK
# heavy: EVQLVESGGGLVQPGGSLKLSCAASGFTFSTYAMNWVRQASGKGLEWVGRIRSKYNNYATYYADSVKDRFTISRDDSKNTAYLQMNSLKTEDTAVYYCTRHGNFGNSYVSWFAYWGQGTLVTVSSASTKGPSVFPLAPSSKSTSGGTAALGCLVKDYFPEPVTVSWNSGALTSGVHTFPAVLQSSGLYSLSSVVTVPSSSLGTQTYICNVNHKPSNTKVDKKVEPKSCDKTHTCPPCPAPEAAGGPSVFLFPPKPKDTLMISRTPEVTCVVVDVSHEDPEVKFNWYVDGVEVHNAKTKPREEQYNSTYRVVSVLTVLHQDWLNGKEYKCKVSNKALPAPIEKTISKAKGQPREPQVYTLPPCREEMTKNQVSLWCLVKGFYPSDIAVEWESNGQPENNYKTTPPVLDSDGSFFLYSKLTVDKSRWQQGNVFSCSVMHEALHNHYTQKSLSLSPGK
# light: B1 light
# notes: structure 7 (3+1 Fab-Fc-VH-VH-VH); PR003886 / PR004533; LALA
# Molecular target: T1, human CD3 on Jurkat cells (human, UniProt P07766 23-207)
# T1 construct: whole, on cells; on cells it stands in the whole CD3/TCR complex; also called CD3-expressing cells
# T1 sequence (P07766 23-207): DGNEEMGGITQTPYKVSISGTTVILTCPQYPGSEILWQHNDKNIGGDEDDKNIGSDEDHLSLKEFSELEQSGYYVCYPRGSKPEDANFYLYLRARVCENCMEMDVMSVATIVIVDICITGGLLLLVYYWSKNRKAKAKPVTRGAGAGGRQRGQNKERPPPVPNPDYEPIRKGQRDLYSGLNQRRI
# Test: FACS on Jurkat cells (CD3)
# Experimental: (§1) Antibodies were assayed for binding affinity by FACS. Test cells include HEK293/hCLDN18.2, HEK293/hCLDN18.1, NUGC4_D8 and Jurkat cells. […] The cell density was adjusted to 10⁶ cells/mL, and 50 μL of the cell suspension was added to each well of a 96-well plate. Antibodies were diluted to different concentrations with FACS buffer, and 50 μL of the antibody dilution was added to each well of the 96-well plate. After 2 h of incubation at 4° C., the plate was washed twice with FACS buffer. […] After 1 h of incubation at 4° C., the plate was washed twice with FACS buffer. The cells were resuspended in fixative solution, and then the fluorescence of the cells was monitored using an FACS instrument (ACEA NovoCyte).
row,Binder,binding result
1,B1,binds
2,B2,binds
3,B3,binds
4,B4,binds
5,B5,binds

# Molecular target: T1, human CD3 on Jurkat cells
# Test: FACS on Jurkat cells (CD3)
# Remark: another data set of the same source
# Experimental: as §1
row,Binder,binding result
1,B6,binds
2,B7,binds
3,B8,binds

# Molecular target: T2, human CLDN18.2 (human)
# T2 construct: the HEK293 line was made with a GenScript plasmid; also called hCLDN18.2
# Test: FACS on HEK293/hCLDN18.2 cells
# Experimental: as §1
row,Binder,EC50 [nM]
1,B7,15.7
2,B8,33.1

# Molecular target: CLDN18.2 of SNU620 cells (methionine to leucine at amino acid 149) (human, UniProt P56856-2 1-261)
# Sequence (P56856 other isoform, or with tags, fused parts or gaps limits assumed): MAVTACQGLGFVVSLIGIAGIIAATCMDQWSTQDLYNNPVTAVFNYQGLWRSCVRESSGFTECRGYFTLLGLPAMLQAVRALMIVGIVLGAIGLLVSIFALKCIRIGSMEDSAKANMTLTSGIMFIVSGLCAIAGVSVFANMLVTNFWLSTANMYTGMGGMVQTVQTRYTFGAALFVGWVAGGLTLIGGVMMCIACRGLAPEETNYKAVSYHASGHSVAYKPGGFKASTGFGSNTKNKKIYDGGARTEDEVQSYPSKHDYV
# Test: cell-based or functional assay
row,Binder,"TDCC, Titer EC50 (pM), SNU620 [pM]"
1,B2,70.5
2,B3,41
3,B7,34.5
4,B8,17.8

# Molecular target: T2, human CLDN18.2
# Test: cell-based or functional assay
row,Binder,"TDCC, Titer EC50 (pM), NUGC4_D8 [pM]"
1,B6,102
2,B1,30.6
3,B2,32.9
4,B3,73.9
5,B4,186
6,B9,28.9
7,B7,142
8,B5,11
9,B8,251

# Molecular target: T1, human CD3 on Jurkat cells
# Test: FACS on Jurkat cells
# Experimental: as §1
row,Binder,EC50 [nM]
1,B9,26.8

# Molecular target: T3, human CLDN18.1 (human, UniProt P56856 1-261)
# T3 construct: whole, on cells; also called hCLDN18.1
# T3 sequence (P56856 whole entry): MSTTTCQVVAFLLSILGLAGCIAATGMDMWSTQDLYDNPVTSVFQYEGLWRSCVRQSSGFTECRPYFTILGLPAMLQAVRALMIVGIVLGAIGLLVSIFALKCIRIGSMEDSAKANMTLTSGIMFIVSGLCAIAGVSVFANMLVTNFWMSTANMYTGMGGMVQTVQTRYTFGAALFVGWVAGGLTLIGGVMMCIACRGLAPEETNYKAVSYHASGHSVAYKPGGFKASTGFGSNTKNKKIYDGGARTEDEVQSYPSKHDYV
# Test: FACS on HEK293/hCLDN18.1 cells
# Experimental: as §1
row,Binder,binding result
1,B1,no binding
2,B2,no binding
3,B3,no binding
4,B4,no binding
5,B9,no binding
6,B5,no binding

# Molecular target: T2, human CLDN18.2
# Test: FACS on NUGC4_D8 cells
# Experimental: as §1
row,Binder,EC50 [nM]
1,B1,20.5
2,B2,13.9
3,B3,13.9
4,B4,13.9
5,B9,12.6
6,B7,90.7
7,B5,12.6
